Test results as given in patent publication US20220323583A1, “Pharmaceutical Formulations of Bi-Specific Diabodies and Use of the Same” (MacroGenics, Inc., priority 2019, published 2022).

Legend:
Human CD3ε/δ = Human CD3ε/δ (Homo sapiens, UniProt P07766); assay: Binding of DART-A to CD3 (ka, kd, KD)
Human CD123-His = target: T1, Human CD123-His (Homo sapiens, UniProt P26951); assay: Binding of DART-A to CD123 (ka, kd, KD)
T1 sequence (P26951 19-378): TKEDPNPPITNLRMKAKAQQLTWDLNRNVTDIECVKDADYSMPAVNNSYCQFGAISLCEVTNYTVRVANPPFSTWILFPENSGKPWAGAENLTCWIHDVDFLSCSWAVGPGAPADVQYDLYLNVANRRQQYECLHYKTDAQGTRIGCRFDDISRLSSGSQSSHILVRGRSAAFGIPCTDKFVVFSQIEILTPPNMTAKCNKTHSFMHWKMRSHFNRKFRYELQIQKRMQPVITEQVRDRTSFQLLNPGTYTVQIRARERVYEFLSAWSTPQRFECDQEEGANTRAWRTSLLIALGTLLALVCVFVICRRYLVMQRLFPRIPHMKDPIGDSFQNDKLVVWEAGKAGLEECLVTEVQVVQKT

Cynomolgus CD123-His = assay: Binding of DART-A to CD123 (ka, kd, KD); set-up: species or system cynomolgus monkey
Molm13 = assay: Redirected killing of target cell line; format: cell-based
THP-1 = assay: Redirected killing of target cell line; format: cell-based
[1] = tested on: primary ALL bone marrow samples; assay: Incubation of primary ALL bone marrow samples with DART-A; format: cell-based, human; conditions: vs untreated control or Control DART
Text: (§1) Upregulation of granzyme B and perforin levels in both CD8 and CD4 T cells was observed.

[2] = tested on: pDCs in cynomolgus monkey PBMCs; assay: pDC depletion in PBMCs; format: cell-based
Text: as §1

pDCs in human PBMCs = assay: pDC depletion in PBMCs; format: cell-based
Text: as §1

CD123+ cells = assay: DART-A infusion in cynomolgus monkeys; format: in vivo
Text: as §1
A decrease in circulating T cells also occurred, but recovered to baseline before the subsequent infusion in monkeys on the 4-day dose schedule, consistent with DART-A-mediated mobilization.

[3] = SE-HPLC (protein aggregation: % main peak, % HMW, % LMW); format: physicochemical; conditions: for FLR SE-HPLC % HMW / FLR SE-HPLC % LMW / FLR SE-HPLC % Main Peak: 0.1 mg/mL solution, Stabilizer 2
Method: FLR SE-HPLC analysis was performed to measure protein purity, monomer purity and protein stability. The FLR SE-HPLC configuration included a fluorescence (FLR) detector (λX=280 nm, λE=340 nm), a mobile phase composition of 350 mM Mobile Phase (175 mMNaH2PO4, 175 mMNa2SO, pH 6.3) and a TosoBio TSK G3000SWXL size exclusion column. Samples were diluted to 0.1 mg/mL and stored at 5±3° C. for 24 to 96 hours prior to analysis. Eight μg of protein (or 100 μL is sample concentration was below 0.1 mg/mL) was injected for each 30-minute run. HMW and LMW species and monomer peaks were monitored.

Visual appearance = format: physicochemical; conditions: for Appearance / Appearance, Particulates: 1250 ng/mL dosing solution
[4] = Post Infusion (Infusion Time = 96 Hrs)
[5] = Post Storage (Time = 72 Hrs), room temperature
[6] = 10 ng/mL dosing solution, Stabilizer 2, Post Infusion (Infusion Time = 48 Hrs)
[7] = 10 ng/mL dosing solution, Stabilizer 2, Post Storage (T = 72 Hrs), room temperature
[8] = 10 ng/mL dosing solution, Stabilizer 2, T = 0
[9] = 20 ng/mL dosing solution, Stabilizer 2, Post Infusion (Infusion Time = 96 Hrs)
[10] = 20 ng/mL dosing solution, Stabilizer 2, Post Storage (T =72 Hrs), room temperature
[11] = 20 ng/mL dosing solution, Stabilizer 2, T = 0
[12] = Stabilizer 2, Post Infusion (Infusion Time = 48 Hrs)
[13] = Stabilizer 2, Post Storage (T = 72 Hrs), room temperature

Chain of Human CD3ε/δ (P07766 23-126 limits assumed): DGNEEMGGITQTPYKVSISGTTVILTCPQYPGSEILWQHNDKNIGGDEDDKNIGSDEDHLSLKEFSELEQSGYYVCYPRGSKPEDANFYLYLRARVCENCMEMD
Chain of Human CD3ε/δ (P04234 22-105 partner limits assumed): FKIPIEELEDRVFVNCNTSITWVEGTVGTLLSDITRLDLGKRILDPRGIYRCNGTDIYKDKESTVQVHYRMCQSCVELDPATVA

B1: DART-A: sequence-optimized CD123×CD3 bispecific diabody; chains SEQ ID NO:42 and SEQ ID NO:44 covalently bonded by a disulfide bond (protein)
chain 1: QAVVTQEPSLTVSPGGTVTLTCRSSTGAVTTSNYANWVQQKPGQAPRGLIGGTNKRAPWTPARFSGSLLGGKAALTITGAQAEDEADYYCALWYSNLWVFGGGTKLTVLGGGGSGGGGEVQLVQSGAELKKPGASVKVSCKASGYTFTDYYMKWVRQAPGQGLEWIGDIIPSNGATFYNQKFKGRVTITVDKSTSTAYMELSSLRSEDTAVYYCARSHLLRASWFAYWGQGTLVTVSSGGCGGGEVAALEKEVAALEKEVAALEKEVAALEK
chain 2: DFVMTQSPDSLAVSLGERVTMSCKSSQSLLNSGNQKNYLTWYQQKPGQPPKLLIYWASTRESGVPDRFSGSGSGTDFTLTISSLQAEDVAVYYCQNDYSYPYTFGQGTKLEIKGGGSGGGGEVQLVESGGGLVQPGGSLRLSCAASGFTFSTYAMNWVRQAPGKGLEWVGRIRSKYNNYATYYADSVKDRFTISRDDSKNSLYLQMNSLKTEDTAVYYCVRHGNFGNSYVSWFAYWGQGTLVTVSSGGCGGGKVAALKEKVAALKEKVAALKEKVAALKE
modifications: interchain disulfide bond; First Polypeptide Chain of DART-A; Second Polypeptide Chain of DART-A
With B1 the “ka (± SD)” value (Human CD3ε/δ) was 5.7 (± 0.6) × 10^5 M^−1s^−1, the “kd (± SD)” value (Human CD3ε/δ) was 5.0 (± 0.9) × 10^−3 s^−1 and the Kd (Human CD3ε/δ; read-out: KD (± SD)) was 9 ± 2.3 nM. For the same molecule, the “ka (± SD)” value (Human CD123-His) was 1.6 (± 0.4) × 10^6 M^−1s^−1, the “kd (± SD)” value (Human CD123-His) was 1.9 (± 0.4) × 10^−4 s^−1 and the “ka (± SD)” value (Cynomolgus CD123-His) was 1.5 (± 0.3) × 10^6 M^−1s^−1. For the same molecule, the “kd (± SD)” value (Cynomolgus CD123-His) was 4.0 (± 0.7) × 10^−4 s^−1, the “Max % Killing” value (Molm13) was 43% and the “Max % Killing” value (THP-1) was 40%. For the same molecule, the leukemic cell population [1] was “depletion of the leukemic cell population over time”, the “depletion of pDCs” value [2] was “capable of mediating the depletion of pDCs cells” and the “depletion of pDCs” value (pDCs in human PBMCs) was “capable of mediating the depletion of pDCs cells”. The “levels of cytokines interferon-gamma, TNF-alpha, IL-6, IL-5, IL-4 and IL-2” value (CD123+ cells; DART-A-treated animals) was “No elevation”, the “pDC depletion after infusion” value (CD123+ cells; as little as 10 ng/kg DART-A) was “depleted as early as 4 days post infusion” and the “circulating CD123+ cells” value (CD123+ cells; infused 4 or 7 days a week, weekly escalating doses) was “depletion of circulating CD123+ cells 72 h after treatment initiation”. For the same molecule, the Toxicity (CD123+ cells; infused 4 or 7 days a week, weekly escalating doses, 4 weeks) was “limited to a minimal transient release of cytokines”, the SE-HPLC species ([3]; 0.1 mg/mL in Stabilizer 2 dosing solution, 72-hour RT storage and administration) was “no changes in the LMW and LMW” and the “FLR SE-HPLC % HMW” value [3, 4] was 0.9%. For the same molecule, the “FLR SE-HPLC % LMW” value [3, 4] was 0.9%, the “FLR SE-HPLC % Main Peak” value [3, 4] was 98.2% and the “FLR SE-HPLC % HMW” value [3, 5] was 0.8%. For the same molecule, the “FLR SE-HPLC % LMW” value [3, 5] was 0.9%, the “FLR SE-HPLC % Main Peak” value [3, 5] was 98.4% and the “FLR SE-HPLC % HMW” value ([3]; T = 0 Hrs) was 0.8%. The “FLR SE-HPLC % LMW” value ([3]; T = 0 Hrs) was 0.9%, the “FLR SE-HPLC % Main Peak” value ([3]; T = 0 Hrs) was 98.4% and the “Visual Appearance” value (Visual appearance; [6]) was “C, L”. For the same molecule, the “Visual Appearance, Particulates” value (Visual appearance; [6]) was “FNP, FPP”, the “Visual Appearance” value (Visual appearance; [7]) was “C, L” and the “Visual Appearance, Particulates” value (Visual appearance; [7]) was “FNP, FPP”. The “Visual Appearance” value (Visual appearance; [8]) was “C, L”, the “Visual Appearance, Particulates” value (Visual appearance; [8]) was “FNP, FPP” and the “Visual Appearance” value (Visual appearance; [9]) was “C, L”. The “Visual Appearance, Particulates” value (Visual appearance; [9]) was “FNP, FPP”, the “Visual Appearance” value (Visual appearance; [10]) was “C, L” and the “Visual Appearance, Particulates” value (Visual appearance; [10]) was “FNP, FPP”. The “Visual Appearance” value (Visual appearance; [11]) was “C, L”, the “Visual Appearance, Particulates” value (Visual appearance; [11]) was “FNP, FPP” and the Appearance (Visual appearance; [12]) was “C, L”. The “Appearance, Particulates” value (Visual appearance; [12]) was “FNP, FPP”, the Appearance (Visual appearance; [13]) was “C, L” and the “Appearance, Particulates” value (Visual appearance; [13]) was “FNP, FPP”. For the same molecule, the Appearance (Visual appearance; Stabilizer 2, T = 0) was “C, L”, the “Appearance, Particulates” value (Visual appearance; Stabilizer 2, T = 0) was “FNP, FPP” and the Visual Appearance (Visual appearance; 0.1 mg/mL in Stabilizer 2 dosing solution, storage and administration) was “No change in visual appearance”. For the same molecule, the “visual appearance of dosing solutions” value (Visual appearance; Stabilizer 2 in saline bag, T=0, after 72 h storage and post infusion (48 or 96 hours)) was “clear, colorless with no visible particulates”.
